Laboratory results published in patent US20250000936A1, “TREATMENT OF GEOGRAPHIC ATROPHY” (Apellis Pharmaceuticals, Inc., priority 2021, published 2025).
Values joined by “and” are separate entries in the source; they are usually repeats but may differ in a detail not shown here. Equal values may be shown once.

What was measured:
[1] = system: patients with geographic atrophy (GA) secondary to age-related macular degeneration (AMD); experiment: OAKS Phase 3 study: safety; settings: for Patients with new onset fellow eye eAMD: through 18 months
Procedure: (§1) All randomized subjects returned every month to the clinical site for assessments and additional pegcetacoplan or sham injections according to their randomization scheme until Month 12. From Month 12 onwards, subjects return to the clinical site based on their randomized treatment schedule (monthly or EOM) and follow the treatment regimen and assessments outlined in the Visit Schedule until Month 24. Safety was assessed throughout the study by a number of evaluations including: monitoring of AEs, preinjection and postinjection monitoring, blood and urine samples collected, physical examination, vital signs, and follow-up phone calls. Blood samples were also be collected for anti-therapeutic antibodies, genotyping, and clinical repository (if the subject consented to this portion).
(§2) The Safety set consisted of all subjects randomized who received at least one injection of pegcetacoplan or sham. Subjects were analyzed according to the actual treatment received. […] This population was used for all safety analyses.

[2] = system: patients with geographic atrophy (GA) secondary to age-related macular degeneration (AMD); experiment: DERBY Phase 3 study: safety; settings: for Patients with new onset fellow eye eAMD: through 18 months
Procedure: as §1, §2

[3] = PEOM (every other month), 12 months
[4] = PEOM (every other month), 12 months, count
[5] = PEOM (every other month), 18 months
[6] = PEOM (every other month), N=212
[7] = PEOM (every other month), N=208

## Poly(oxy-1,2-ethanediyl), α-hydro-ω-hydroxy-, 15,15′-diester with N-acetyl-L-isoleucyl-L-cysteinyl-L-valyl-1-methyl-L-tryptophyl-L-glutaminyl-L-α-aspartyl-L-tryptophylglycyl-L-alanyl-L-histidyl-L-arginyl-L-cysteinyl-L-threonyl-2-[2-(2-aminoethoxy) ethoxy]acetyl-N^6-carboxy-L-lysinamide cyclic (2->12)-(disulfide) [pegcetacoplan]
[1]; [3]
  All TEAEs, Total events, M: 721
  All TEAEs, patients: 160 (75.5%) n (%)
  Cases of MNV (FA) detected by reading center but not reported by Investigator as AE: 3
  Non-ocular TEAEs, Patients: 127 (59 9%) n (%)
  Non-ocular TEAEs, events M: 412
  Ocular TEAE in study eye Conjunctival haemorrhage, events M: 16
  Ocular TEAE in study eye Conjunctival haemorrhage, patients: 13 (6.1%) n (%)
  Ocular TEAE in study eye Eye Pain, events M: 14
  Ocular TEAE in study eye Eye Pain, patients: 12 (5.7%) n (%)
  Ocular TEAE in study eye Vitreous floaters, events M: 20
  Ocular TEAE in study eye Vitreous floaters, patients: 15 (7.1%) n (%)
  Ocular TEAEs in study eye, Patients: 97 (45.8%) n (%) and 97 (45.8) n (%)
  Ocular TEAEs in study eye, events M: 208
  Serious ocular TEAE Endophthalmitis, events M: 3
  Serious ocular TEAE Endophthalmitis, patients: 3 (1.4%) n (%)
  Serious ocular TEAE Macular hole, patients: 0 n (%)
  Serious ocular TEAE Optic ischemic neuropathy, patients: 0 n (%)
  Serious ocular TEAE Papilledema, patients: 0 n (%)
  Serious ocular TEAE Retinal detachment, events M: 1
  Serious ocular TEAE Retinal detachment, patients: 1 (0.5%) n (%)
  Serious ocular TEAEs in the study eye, events M: 4
  Serious ocular TEAEs in the study eye, patients: 4 (1.9%) n (%)
  Sum of investigator-determined eAMD and reading center cases not reported by investigators: (6.1%)
[1]; [4]
  Sum of investigator-determined eAMD and reading center cases not reported by investigators: 13
[1]; [5]
  All TEAEs, Total events, M: 965
  All TEAEs, patients: 177 (83.5%) n (%)
  Non-ocular TEAEs, M: 567
  Non-ocular TEAEs, Patients: 158 (74.5%) n (%)
  Ocular TEAEs in study eye, M: 270
  Ocular TEAEs in study eye, Patients: 114 (53.8%) n (%)
[1]; [6]
  Discontinued study prior to Month 12, reason Adverse Event: 5 (2.4%) n (%)
  Discontinued study prior to Month 12, reason Death: 3 (1.4%) n (%)
  Discontinued study prior to Month 18, reason Adverse event: 4 (1.9%) n (%)
  Discontinued study prior to Month 18, reason Death: 7 (3.3%) n (%)
[1]; PEOM (every other month), 173 patients without baseline fellow eye CNV
  Patients with new onset fellow eye eAMD: 5 (2.9%) n (%)
[1]; PM (monthly), 12 months
  All TEAEs, Total events, M: 751
  All TEAEs, patients: 170 (79.8%) n (%)
  Cases of MNV (FA) detected by reading center but not reported by Investigator as AE: 2
  Non-ocular TEAEs, Patients: 136 (63.8%) n (%)
  Non-ocular TEAEs, events M: 390
  Ocular TEAE in study eye Conjunctival haemorrhage, events M: 30
  Ocular TEAE in study eye Conjunctival haemorrhage, patients: 18 (8.5%) n (%)
  Ocular TEAE in study eye Eye Pain, events M: 17
  Ocular TEAE in study eye Eye Pain, patients: 15 (7.0%) n (%)
  Ocular TEAE in study eye Vitreous floaters, events M: 10
  Ocular TEAE in study eye Vitreous floaters, patients: 9 (4.2%) n (%)
  Ocular TEAEs in study eye, Patients: 108 (50.7%) n (%)
  Ocular TEAEs in study eye, events M: 256
  Serious ocular TEAE Dry AMD, patients: 0 n (%)
  Serious ocular TEAE Endophthalmitis, events M: 3
  Serious ocular TEAE Endophthalmitis, patients: 1 (0.5%) n (%)
  Serious ocular TEAE Macular hole, patients: 0 n (%)
  Serious ocular TEAE Optic ischemic neuropathy, events M: 3
  Serious ocular TEAE Optic ischemic neuropathy, patients: 1 (0.5%) n (%)
  Serious ocular TEAE Papilledema, events M: 3
  Serious ocular TEAE Papilledema, patients: 1 (0.5%) n (%)
  Serious ocular TEAE Retinal detachment, patients: 0 n (%)
  Serious ocular TEAE Vitritis, patients: 0 n (%)
  Serious ocular TEAEs in the study eye, events M: 3
  Serious ocular TEAEs in the study eye, patients: 3 (1.4%) n (%)
  Sum of investigator-determined eAMD and reading center cases not reported by investigators: (6.1%)
[1]; PM (monthly), 12 months, count
  Sum of investigator-determined eAMD and reading center cases not reported by investigators: 13
[1]; PM (monthly), 18 months
  All TEAEs, Total events, M: 1037
  All TEAEs, patients: 185 (86.9%) n (%)
  Non-ocular TEAEs, M: 573
  Non-ocular TEAEs, Patients: 152 (71.4%) n (%)
  Ocular TEAEs in study eye, M: 325
  Ocular TEAEs in study eye, Patients: 126 (59.2%) n (%)
[1]; PM (monthly), N=213
  Discontinued study prior to Month 12, reason Adverse Event: 3 (1.4%) n (%)
  Discontinued study prior to Month 12, reason Death: 7 (3.3%) n (%)
  Discontinued study prior to Month 18, reason Adverse event: 6 (2.8%) n (%)
  Discontinued study prior to Month 18, reason Death: 12 (5.6%) n (%)
[1]; PM (monthly), 168 patients without baseline fellow eye CNV
  Patients with new onset fellow eye eAMD: 8 (4.8%) n (%)
[1]; every other month, month 18, 15/212 patients
  patients with study eye investigator-determined new-onset exudative AMD: 7.1%
[1]; monthly, month 18, 16/213 patients
  patients with study eye investigator-determined new-onset exudative AMD: 7.5%
[2]; [3]
  All TEAEs, Total events, M: 600
  All TEAEs, patients: 155 (74.5%) n (%)
  Cases of MNV (FA) detected by reading center but not reported by Investigator as AE: 1
  Non-ocular TEAEs, Patients: 110 (52.9%) n (%)
  Non-ocular TEAEs, events M: 339
  Ocular TEAE in study eye Vitreous floaters, events M: 5
  Ocular TEAE in study eye Vitreous floaters, patients: 4 (1.9%) n (%)
  Ocular TEAEs in study eye, Patients: 91 (43.8%) n (%) and 91 (43.8) n (%)
  Ocular TEAEs in study eye, events M: 162
  Serious ocular TEAE Dry AMD, patients: 0 n (%)
  Serious ocular TEAE Endophthalmitis, patients: 0 n (%)
  Serious ocular TEAE Macular hole, patients: 0 n (%)
  Serious ocular TEAE Optic ischemic neuropathy, patients: 0 n (%)
  Serious ocular TEAE Papilledema, patients: 0 n (%)
  Serious ocular TEAE Retinal detachment, patients: 0 n (%)
  Serious ocular TEAE Vitritis, patients: 0 n (%)
  Serious ocular TEAEs in the study eye, patients: 0 n (%)
  Sum of investigator-determined eAMD and reading center cases not reported by investigators: (3.8%)
[2]; [4]
  Sum of investigator-determined eAMD and reading center cases not reported by investigators: 8
[2]; [5]
  All TEAEs, Total events, M: 835
  All TEAEs, patients: 171 (82.2%) n (%)
  Non-ocular TEAEs, M: 495
  Non-ocular TEAEs, Patients: 132 (63.5%) n (%)
  Ocular TEAEs in study eye, M: 216
  Ocular TEAEs in study eye, Patients: 99 (47.6%) n (%)
[2]; [7]
  Discontinued study prior to Month 12, reason Adverse Event: 4 (1.9%) n (%)
  Discontinued study prior to Month 12, reason Death: 0 n (%)
  Discontinued study prior to Month 18, reason Adverse event: 4 (1.9%) n (%)
  Discontinued study prior to Month 18, reason Death: 4 (1.9%) n (%)
[2]; PEOM (every other month), 166 patients without baseline fellow eye CNV
  Patients with new onset fellow eye eAMD: 8 (4.8%) n (%)
[2]; PM (monthly), 12 months
  All TEAEs, Total events, M: 708
  All TEAEs, patients: 158 (76.7%) n (%)
  Cases of MNV (FA) detected by reading center but not reported by Investigator as AE: 0
  Non-ocular TEAEs, Patients: 127 (61.7%) n (%)
  Non-ocular TEAEs, events M: 396
  Ocular TEAE in study eye Vitreous floaters, events M: 22
  Ocular TEAE in study eye Vitreous floaters, patients: 18 (8.7%) n (%)
  Ocular TEAEs in study eye, Patients: 100 (48.5%) n (%)
  Ocular TEAEs in study eye, events M: 227
  Serious ocular TEAE Dry AMD, patients: 0 n (%)
  Serious ocular TEAE Endophthalmitis, patients: 0 n (%)
  Serious ocular TEAE Macular hole, patients: 0 n (%)
  Serious ocular TEAE Optic ischemic neuropathy, patients: 0 n (%)
  Serious ocular TEAE Papilledema, patients: 0 n (%)
  Serious ocular TEAE Retinal detachment, patients: 0 n (%)
  Serious ocular TEAE Vitritis, events M: 1
  Serious ocular TEAE Vitritis, patients: 1 (0.5%) n (%)
  Serious ocular TEAEs in the study eye, events M: 1
  Serious ocular TEAEs in the study eye, patients: 1 (0.5%) n (%)
  Sum of investigator-determined eAMD and reading center cases not reported by investigators: (6.8%)
[2]; PM (monthly), 12 months, count
  Sum of investigator-determined eAMD and reading center cases not reported by investigators: 14
[2]; PM (monthly), 18 months
  All TEAEs, Total events, M: 993
  All TEAEs, patients: 170 (82.5%) n (%)
  Non-ocular TEAEs, M: 567
  Non-ocular TEAEs, Patients: 148 (71.8%) n (%)
  Ocular TEAEs in study eye, M: 308
  Ocular TEAEs in study eye, Patients: 118 (57.3%) n (%)
[2]; PM (monthly), N=206
  Discontinued study prior to Month 12, reason Adverse Event: 1 (0.5%) n (%)
  Discontinued study prior to Month 12, reason Death: 5 (2.4%) n (%)
  Discontinued study prior to Month 18, reason Adverse event: 3 (1.5%) n (%)
  Discontinued study prior to Month 18, reason Death: 6 (2.9%) n (%)
[2]; PM (monthly), 167 patients without baseline fellow eye CNV
  Patients with new onset fellow eye eAMD: 4 (2.4%) n (%)
[2]; every other month, month 18, 11/208 patients
  patients with study eye investigator-determined new-onset exudative AMD: 5.3%
[2]; monthly, month 18, 24/206 patients
  patients with study eye investigator-determined new-onset exudative AMD: 11.7%
